# Results taken from patent US7888090B2, “Mutants of O6-alkylguanine-DNA alkyltransferase” (Ecole Polytechnique Federale de Lausanne, priority 2004, dated 2011).
# B1: AGTM: AGT mutant Cys62Ala, Gln115Ser, Gln116His, Lys125Ala, Ala127Thr, Arg128Ala, Gly131Lys, Gly132Thr, Met134Leu, Arg135Ser, Cys150Asn, Ser151Ile, Ser152Asn, Asn157Gly, Ser159Glu, truncated after … (protein, UniProt P16455 1-207, looked up, variant C62A Q115S Q116H K125A A127T R128A G131K G132T M134L R135S C150N S151I S152N N157G S159E del183-207)
# Methylated-DNA--protein-cystei …: MDKDCEMKRTTLDSPLGKLELSGCEQGLHEIKLLGKGTSAADAVEVPAPAAVLGGPEPLMQATAWLNAYFHQPEAIEEFPVPALHHPVFQQESFTRQVLWKLLKVVKFGEVISYSHLAALAGNPAATAAVKTALSGNPVPILIPCHRVVNINGAVGGYEGGLAVKEWLLAHEGHRLGKPGLG
# modifications: His tag
# Columns and labels:
# [1] = Expression yield of soluble GST-AGT fusion protein; parameters: species or system E. coli; settings: comparator not stated
# Procedure, shortened: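 GST-AGT fusions expressed in E. coli BL21, induced with 0.5 mM IPTG for 3.5 h at 24 °C, and purified from the soluble fraction on glutathione sepharose. Soluble and insoluble fractions compared by SDS-PAGE. Yield taken from A280 relative to wild-type hAGT purified the same way.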
# [2] = Periplasmic expression / stability under oxidizing conditions; parameters: species or system E. coli
# Procedure: The activities towards AGT substrates are measured after purification without addition of reducing agents such as dithiothreitol or beta-mercaptoethanol. Alternatively, the activities of mutant AGT and wild type human are compared after their export into cellular compartments with oxidising redox potential (e.g. the periplasm of E. coli due to their fusion to appropriate signal sequences. Activity towards AGT substrates under reducing and oxidising conditions is compared by performing the reactions in the presence or absence of reducing agents such as dithiothreitol or beta-mercaptoethanol.
# The mutant AGT gene of Example 1 is amplified and cloned as described in Example 1 with the oligonucleotides SEQ ID NO:3, SEQ ID NO:10 and SEQ ID NO:4, SEQ ID NO:9 causing the further mutation Cys62Ala in the gene upon their incorporation by PCR. Protein expression, purification and determination of yield is carried out as described in Example 1. The mutant gene is PCR amplified with the primers SEQ ID NO:11, SEQ ID NO:12 that contain SfiI restriction sites to subclone the gene in fusion to the g3 protein of filamentous phage in the vector pAK100 (Krebber et al., J Immunol Methods 201:35-55, 1997). […] The supernatant is directly subjected to quantification of protein yield via SDS-PAGE and activity assays as described in Example 1.
# Stability under oxidizing conditions: The mutant gene is PCR amplified with the primers SEQ ID NO:11 and SEQ ID NO:28 to subclone the gene into pAK100, as described in Example 2. […] To compare the reactivity of […] (Juillerat et al., Chem Biol 10:313-317, 2003) and the mutant, samples are incubated with 1 µM BG-Bt for 50 min, quenched with SDS-Laemmli buffer and analyzed by western blotting using neutravidin peroxidase conjugate (Pierce) or a monoclonal mouse anti-FLAG IgG antibody (M2, Sigma) and a secondary anti-mouse-IgG::HRP conjugate, and Renaissance reagent plus (NEN). […] The anti-FLAG IgG antibody is used to estimate the total amount of soluble AGT protein, whereas neutravidin quantifies the reactive portion of it. […]
molecule,measurement,setting,value
B1,expression yield in E. coli,[1],increased expression yield
same,sensitivity to oxidation,[2],reduced sensitivity to oxidation
